# Data: patent publication US20060149033A1, “IGF antagonist peptides” (GENENTECH, INC., priority 2001, published 2006)
# Bridge positions count the residues as written; N and C are the ends. Peptide text beside a SMILES is read from it.
# What was measured:
# [1] = tested on: human insulin receptor (hIR); assay: Cell-based insulin KIRA assay (kinase receptor activation); settings: Chinese hamster ovary cells transfected with hIR; peptides incubated with 25 nm IGF-1 for 1 hr; 15 min stimulation
# Protocol: Cell-Based Insulin KIRA Assay of IGF-1 Binding Peptide Activity
# A kinase receptor activation assay (KIRA) (Sadick et al., J. Pharm. Biomed. Anal., 19, 883-891 (1999)) for measuring phosphorylation of human insulin receptor (hIR) was developed using Chinese hamster ovary cells transfected with the hIR. (TRY-1R 5.3) Cells were grown overnight in 96-well plates with medium (PS/20) at 37° C. Supernatants were decanted and stimulation media (PS/20 and 0.5% BSA) containing either peptide samples (peptides incubated with 25 nm IGF-1 for 1 hr), experimental controls (IGF Bp1 incubated with IGF-1 for 1 hr), and 25 nm rhIGF-1 standards were added. After fifteen minute stimulation at 37° C., stimulation solutions were removed and cells were lysed with a buffer containing 50 mM HEPES, 150 mM NaCl, 0.5% Triton-X-100™ octylphenyl ethylene oxide condensate, 1 mM AEBSF, aprotinin and 0.05 mM leupeptin, and 2 mM sodium orthovanadate. Lysates were frozen at −70° C. for ELISA. Immunosorbant plates were coated with 2 μg/ml insulin receptor Ab-2 (clone 83-7) in PBS at pH 7.0 overnight at 4° C. The plate was blocked and washed as above. Cell lysates containing transfected hIR were incubated on the capture ELISA plates for 2 hrs. After removing unbound receptor by washing, biotinylated anti-phosphotyrosine 4G10 (Upstate Biologicals Inc.) was added to detect activated receptor. After 2 hrs, the plates were developed with streptavidin conjugated to HRP and TMB substrate as above.
# [2] = tested on: human type 1 IGF-1 receptor; assay: Cell-based IGF-1 KIRA assay; settings: MCF-7 cells; peptides preincubated 30 min with 2 nm IGF-1; 15-minute stimulation
# Protocol: Cell-Based IGF-1 KIRA Assay
# A KIRA for measuring the activation of the human type 1 IGF-1 receptor was performed using human MCF-7 cells (as described above). Cells were grown overnight in 96-well plates with medium (50:50 F12/DMEM, Gibco). Supernatants were decanted, and stimulation media (50:50 F12/DMEM with 25 mM HEPES and 2.0% BSA) containing either controls (2 nM IGF-1 preincubated with IGF Bp1 or Bp3) or experimental samples (Peptides preincubated for 30 min. with 2 nm IGF-1) were added. After 15-minute stimulation the cells were lysed, and added to the polyclonal anti-IGF-R (3B7 Santa Cruz Biotech) coated overnight on immunosorbant plates. The detection ELISA was performed as above.
# IGF-1 = target: T1, IGF-1 (Homo sapiens, UniProt P05019); assay: Affinity measurement by monovalent phage ELISA (phage competition IC50); assay type: binding; settings: positive second generation clones
# T1 construct: made in house
# Protocol: E. coli XL1-Blue harboring phagemids were grown overnight at 37° C. in 2YT, 50 μg/mL carbenicillin, 10 μg/mL tetracycline and M13-VCS helper phage (10^10 phage/mL). Phage were harvested from the culture supernatant by precipitation twice with PEG/NaCl and resuspended in phosphate-buffered saline, 0.2% BSA, 0.1% TWEEN®-20 detergent (BSA blocking buffer). Phage concentrations were determined spectrophotometrically (λ268=1.2×10^8 M^−1 cm^−1).
# MAXISORP™ immunoplates (96-well) were coated with capture target protein for 2 hours at room temperature (100 μL at 5 μg/mL in 50 mM carbonate buffer, pH 9.6). The plates were then blocked for 1 h with 0.2% BSA in phosphate-buffered saline (PBS) and washed eight times with PBS, 0.05% TWEEN®-20 detergent. Phage particles were serially diluted into BSA blocking buffer and 100 μL were transferred to coated wells. After 1 h, plates were washed eight times with PBS, 0.05% TWEEN®-20 detergent, incubated with 100 μL of 1:3000 horse radish peroxidase/anti-M13 antibody conjugate in BSA blocking buffer for 30 min, and then washed eight times with PBS, 0.05% TWEEN®-20 detergent and two times with PBS. Plates were developed using a tetramethylbenzidine substrate (TMB, Kirkegaard and Perry, Gaithersburg, Md.), stopped with 1.0 M H3PO4, and read spectrophotometrically at […].
# Affinity Measurement by Monovalent Phage ELISA
# Phage ELISAs were carried out as described above, using plates coated with IGF-1. Peptide-displaying phage were serially diluted and binding was measured to determine a phage concentration giving <50% of the ELISA signal at saturation.
# A fixed, subsaturating concentration of peptide-phage was mixed with serial dilutions of IGF-1 and incubated for 1.0 hr and then transferred to assay plates coated with IGF-1. After 30-min incubation, the plates were washed and developed as described above. The binding affinities of the peptides for IGF-1 were determined as IC50 values where the IC50 value is defined as the concentration of IGF-1 that blocked 50% of the peptide-phage binding to the immobilized IGF-1.
# T1 sequence (P05019 49-118 limits assumed): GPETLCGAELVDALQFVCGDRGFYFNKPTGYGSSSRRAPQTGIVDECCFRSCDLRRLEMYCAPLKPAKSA
Compound,IC50 (IGF-1),IC50 [1],IC50 [2]
"CSCC[C@H](NC(=O)[C@@H]1CSSC[C@H](NC(=O)[C@H](CCC(=O)O)NC(=O)[C@@H](N)CC(=O)O)C(=O)N[C@@H](CC(C)C)C(=O)N[C@@H](CCSC)C(=O)N[C@@H](CO)C(=O)N[C@@H](C(C)C)C(=O)N[C@@H](CCC(=O)O)C(=O)N[C@@H](C)C(=O)N[C@@H](CC(C)C)C(=O)N[C@@H](CCCCN)C(=O)N[C@@H](CC(N)=O)C(=O)N1)C(=O)NCC(=O)NCC(=O)O [Peptide F1-P, DECLMSVEALKNCMGG] (H-DECLMSVEALKNCMGG-OH; disulfide 3-13)",,183 µM,400 µM
"CC(C)C[C@@H]1NC(=O)[C@H](CC(=O)O)NC(=O)[C@H](CO)NC(=O)[C@H](C)NC(=O)[C@@H](NC(=O)CNC(=O)[C@@H](N)CC(C)C)CSSC[C@@H](C(=O)N[C@@H](Cc2c[nH]c3ccccc23)C(=O)N[C@@H](C)C(=O)NCC(=O)O)NC(=O)[C@H](Cc2ccc(O)cc2)NC(=O)[C@H](Cc2c[nH]c3ccccc23)NC(=O)[C@H](Cc2ccccc2)NC(=O)CNC(=O)[C@H](C)NC1=O [Peptide F2-1, LGCASDLAGFWYCWAG] (H-LGCASDLAGFWYCWAG-OH; disulfide 3-13 (inferred); N-terminus and C-terminus assumed)",,40.4 µM,
"CC(C)C[C@@H]1NC(=O)[C@H](CC(=O)O)NC(=O)[C@H](CC(=O)O)NC(=O)[C@H](C(C)C)NC(=O)[C@@H](NC(=O)[C@H](CCCNC(=N)N)NC(=O)[C@@H](N)Cc2c[nH]c3ccccc23)CSSC[C@@H](C(=O)N[C@@H](Cc2c[nH]c3ccccc23)C(=O)N[C@@H](C)C(=O)NCC(=O)O)NC(=O)[C@H](Cc2ccc(O)cc2)NC(=O)[C@H](CCC(N)=O)NC(=O)[C@H](Cc2ccccc2)NC(=O)CNC(=O)CNC1=O [Peptide F2-2, WRCVDDLGGFQYCWAG] (H-WRCVDDLGGFQYCWAG-OH; disulfide 3-13 (inferred); N-terminus and C-terminus assumed)",,93.6 µM,130 µM
"CC(C)[C@@H]1NC(=O)[C@@H](NC(=O)[C@H](CCCNC(=N)N)NC(=O)[C@H](C)N)CSSC[C@@H](C(=O)N[C@@H](Cc2c[nH]c3ccccc23)C(=O)N[C@@H](C)C(=O)NCC(=O)O)NC(=O)[C@H](Cc2ccc(O)cc2)NC(=O)[C@H](Cc2c[nH]c3ccccc23)NC(=O)[C@H]([C@@H](C)O)NC(=O)CNC(=O)CNC(=O)[C@H](C)NC(=O)[C@H](CC(=O)O)NC(=O)[C@H](C(C)C)NC1=O [Peptide F2-P, ARCVVDAGGTWYCWAG] (H-ARCVVDAGGTWYCWAG-OH; disulfide 3-13)",,300 µM,
F1-A (HPCLESVGALKACMY; Sequence is synthesized) [Peptide F1-A],0.401 µM,,
F1-B (FGCYESVAALRTCMY; Sequence is synthesized) [Peptide F1-B],0.301 µM,,
F1-C (RNCFESVAALRRCMY; Sequence is synthesized) [Peptide F1-C],0.108 µM,,
F1-E (SDCFGSVEALKMCMY; Sequence is synthesized) [Peptide F1-E],0.711 µM,,
F1-F (FECLTSVEALRGCMY; Sequence is synthesized) [Peptide F1-F],0.286 µM,,
F1-G (SDCFESVEALRACMY; Sequence is synthesized) [Peptide F1-G],0.968 µM,,
F1-H (MDCLASVEALKWCMY; Sequence is synthesized) [Peptide F1-H],0.147 µM,,

# Second part, led by results:
IC50 (IGF-1),Compound,IC50 [1],IC50 [2]
1.33 µM,F2-A (GGCASDLAGFRYCWE; Sequence is synthesized) [Peptide F2-A],,
24.6 µM,F2-B (VRCAYDAGGSRYCWE; Sequence is synthesized) [Peptide F2-B],,
10000 µM,F2-C (VKCARDLSGFVYCWA; Sequence is synthesized) [Peptide F2-C],,
249 µM,F2-D (VRCAWDLGGRAYCWA; Sequence is synthesized) [Peptide F2-D],,
0.554 µM,F2-E (LGCASDLAGFWYCWA; Sequence is synthesized) [Peptide F2-E],,
209 µM,F2-F (FRCAWELGWLYVLGL; Sequence is synthesized) [Peptide F2-F],,
0.986 µM,F2-G (ASCVADAGGGGYCWD; Sequence is synthesized) [Peptide F2-G],,
0.319 µM,F2-H (WRCVDDLGGFQYCWA; Sequence is synthesized) [Peptide F2-H],,
1.03 µM,F2-I (VTCAADALGFLYCWE; Sequence is synthesized) [Peptide F2-I],,
2.12 µM,F2-J (LRCAEDLGGYFYCWA; Sequence is synthesized) [Peptide F2-J],,
1.45 µM,F2-K (YRCATDLAGFSYCWA; Sequence is synthesized) [Peptide F2-K],,
4.36 µM,F2-L (ARCARDAGGFYYCWA; Sequence is synthesized) [Peptide F2-L],,
1.04 µM,F2-M (WRCAQDAGGWTYCWA; Sequence is synthesized) [Peptide F2-M],,
1.18 µM,F2-N (WRCVTDAGGRPYCWA; Sequence is synthesized) [Peptide F2-N],,
